Columns and labels:
[1] = target: LigIIIα co-expressed with His-tagged XRCC1 and TDP1 in insect cells (human); test: co-purification after co-expression
[2] = target: His-tagged LigIIIα (full-length DNA ligase IIIα), co-expressed with TDP1 in insect cells (human); test: co-purification after co-expression
[3] = target: LigIII_(170–755) (human); test: SEC-MALS
[4] = target: His-tagged LigIIIβ full length (1–846) (human); test: SPR
[5] = target: His-tagged XRCC1, insect-cell expressed (human) (UniProt P18887); test: co-purification after co-expression
Chain of UniProt P18887 (P18887 whole entry): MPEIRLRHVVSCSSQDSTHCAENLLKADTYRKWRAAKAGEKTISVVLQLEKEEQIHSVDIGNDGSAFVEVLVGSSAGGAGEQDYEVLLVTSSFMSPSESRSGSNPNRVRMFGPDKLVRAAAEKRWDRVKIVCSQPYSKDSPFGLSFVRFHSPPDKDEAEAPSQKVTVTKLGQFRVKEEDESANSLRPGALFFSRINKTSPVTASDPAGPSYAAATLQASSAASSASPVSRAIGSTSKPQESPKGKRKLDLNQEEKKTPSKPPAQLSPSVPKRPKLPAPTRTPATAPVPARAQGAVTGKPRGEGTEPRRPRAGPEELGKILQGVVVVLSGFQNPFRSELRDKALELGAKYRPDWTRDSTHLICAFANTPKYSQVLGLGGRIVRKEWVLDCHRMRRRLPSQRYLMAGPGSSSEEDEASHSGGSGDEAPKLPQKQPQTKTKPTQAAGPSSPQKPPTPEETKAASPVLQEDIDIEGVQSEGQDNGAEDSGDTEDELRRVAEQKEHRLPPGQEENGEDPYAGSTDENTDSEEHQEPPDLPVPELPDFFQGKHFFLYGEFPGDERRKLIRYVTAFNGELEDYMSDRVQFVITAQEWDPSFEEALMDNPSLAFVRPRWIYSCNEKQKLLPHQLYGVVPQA

Substance	stoichiometry N [1]	stoichiometry N [2]	stoichiometry N [3]	Kd [4] [nM]	stoichiometry N [5]
Flag-tagged TDP1 (tyrosyl DNA phosphodiesterase 1), insect-cell expressed, phosphorylated (from UniProt Q9NUW8 1-608) (enzyme)	1	1	1	5.1	
TDP1-S81E, insect-cell expressed, phosphorylated (from UniProt Q9NUW8 1-608) (enzyme)				8.8	
TDP1-S81A, insect-cell expressed, phosphorylated (from UniProt Q9NUW8 1-608) (enzyme)				5.3	
LigIIIα co-expressed with His-tagged XRCC1 and TDP1 in insect cells (enzyme)					1
